According to patent US20140275493A1 (Bayer, published 2014):

Target: T1, Human TFPI (tissue factor pathway inhibitor) (human, UniProt P10646 29-304, limits assumed)
T1 construct: Coated on Maxisorb plates for the ELISA
T1 sequence (looked up): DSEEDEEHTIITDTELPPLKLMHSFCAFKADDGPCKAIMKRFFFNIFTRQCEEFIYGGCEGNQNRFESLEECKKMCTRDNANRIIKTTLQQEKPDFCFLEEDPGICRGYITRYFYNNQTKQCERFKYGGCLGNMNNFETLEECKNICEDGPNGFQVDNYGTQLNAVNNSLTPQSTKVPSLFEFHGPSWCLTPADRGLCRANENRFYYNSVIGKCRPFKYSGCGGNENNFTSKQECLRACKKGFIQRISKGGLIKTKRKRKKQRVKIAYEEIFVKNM
Experiment: pH 6.0 TFPI dissociation ELISA, ratio of signals
Procedure: Human TFPI, 1 μg/ml, was used to coat Maxisorb™ microtiter plates. Expression media, 100 μl, from each member of the His scan library, was added to two wells on the plate, in a pair wise fashion. The plate was incubated on a shaker at room temperature for 1 hr. The plate was washed 3× with PBST. PBS (pH 7.0) was added to one well of the pair, 100 mM pH6.0 Citrate buffer was added to the second well of the same pair. The plate was incubated at 37° C. with shaking for one hr. The plate was washed 3× with PBST and developed using amplex red. A pH 7.0/pH 6.0 ratio was established to rank the sensitive muteins. The ratio for wild type 2A8-g200 Fab was 1.0.

Ratio pH 7.0/pH 6.0: 6.64
B1: 2A8-g200 Fab VL-Y31H (Fab, V domains shown)
VH: EVQLVESGGGLVQPGGSLRLSCAASGFTFSSYGMDWVRQAPGKGLEWVSSIRGSRGSTYYADSVKGRFTISRDNSKNTLYLQMNSLRAEDTAVYYCARLYRYWFDYWGQGTLVTVSS
VL: SYELTQPPSVSVSPGQTARITCSGDNLPKYHAHWYQQKPGQAPVVVIFYDVNRPSGIPERFSGSNSGNTATLTISGTQAMDEADYYCQAWWSSTPVFGGGTKLTVLG
